Measured values: patent publication US20210032364A1

Tests used:
[1] = target: Na+/K+ ATPase α-1 on mouse Lewis Lung LL/2 cancer cells (mouse) (UniProt Q8VDN2); assay: flow cytometry, 5 µg/ml, EDTA-treated intact mouse LL/2 cells
[2] = target: Na+/K+ ATPase α-1 on mouse Lewis Lung LL/2 cancer cells (mouse) (UniProt Q8VDN2); assay: flow cytometry, 5 µg/ml, trypsin-treated intact mouse LL/2 cells
[3] = target: Na+/K+ ATPase α-1 on mouse Lewis Lung LL/2 cancer cells (mouse) (UniProt Q8VDN2); assay: flow cytometry, 5 µg/ml, EDTA-treated permeabilized mouse LL/2 cells

- % cells stained [1]: 29.9%
- % cells stained [2]: 20.5%
- % cells stained [3]: 63.8%
Substance: mAb to Na+/K+ ATPase α-1 (Abcam, Cat. No. ab2826) (antibody)
